Experiments:
Type in all cases: cell-based, Pseudomonas saitens KCTC 13107BP
P4381-cm^R SF1 strain = experiment: MIC test of chloramphenicol on recombinant SF1 strain (P4381 promoter)
Method: (§1) A pB-P4381 vector comprising cm^R gene (cat) downstream of the promoter of highly expressed gene Gene_4381, which was selected based on RNA-seq data, was constructed as described in (2). This vector was then introduced into SF1 strain by electroporation. As control groups, a pSF-EX1 vector and a pBBR-122 vector were introduced into separate SF1 strains in the same manner as described above.
(§2) Each of the recombinant SF1 strains was cultured in separate wells of a microplate containing LB medium containing predetermined chloramphenicol, and growth thereof was examined to confirm minimal inhibitory concentrations (MICs). Culturing was performed at 30° C. for 2 days in an LB medium supplemented with 400 μg/ml of chloramphenicol by ½ dilution at each concentration.

Ptac-cm^R SF1 strain = experiment: MIC test of chloramphenicol on recombinant SF1 strain (Ptac promoter); settings: Pseudomonas, 48 h, read-out: MIC of Chloramphenicol
Method: as §1, §2

Pcat-cm^R SF1 strain = experiment: MIC test of chloramphenicol on recombinant SF1 strain (Pcat promoter); settings: Pseudomonas, 48 h, LB medium, 30° C., 2 days
Method: as §1, §2

cat protein = experiment: SDS-PAGE analysis of cat protein expression in cell lysates; settings: SDS-PAGE of soluble proteins, SF1 strain
Description: Pcat-cm^R, Ptac-cm^R, and P4381-cm^R cells cultured in (3.1) were lysed to obtain cell lysates, from which soluble proteins were isolated using a BuGBusTER® Protein Extraction Reagent, respectively. The isolated proteins were subjected to SDS-PAGE to examine cat expression.
In FIG. 5, the arrow indicates the position of cat protein.

cat gene = experiment: cat mRNA level by RT-PCR; settings: SF1 strain
Description: Pcat-cm^R, Ptac-cm^R, and P4381-cm^R cells cultured in (3.1) were lysed to obtain cell lysates, which were then centrifuged to obtain supernatants, respectively. Each supernatant was subjected to RT-PCR using a set of primers of SEQ ID NOS: 13 and 14.
In FIG. 4, the vertical axis represents a ratio when a cycle threshold (CT) value of Pcat promoter is regarded as 1, and Pcat, Ptac, and P4381 on the horizontal axis represent SF1 strains introduced with […], respectively.

| Molecule | MIC (P4381-cm^R SF1 strain; Pseudomonas, 48 h, strain P4381-cm^R, LB medium, 30° C., 2 days) [µg/mL] | MIC (Ptac-cm^R SF1 strain) [µg/mL] | MIC (Pcat-cm^R SF1 strain) [µg/mL] | MIC relative to that of existing Pcat and Ptac (P4381-cm^R SF1 strain; chloramphenicol MIC, SF1 strain) | cat protein expression level compared with Pcat and Ptac (cat protein) | cat mRNA level relative to Pcat (cat gene; compared with Pcat promoter) [times] | cat mRNA level relative to Ptac (cat gene; compared with Ptac promoter) [times] |
| --- | --- | --- | --- | --- | --- | --- | --- |
| O=C(N[C@H](CO)[C@H](O)c1ccc([N+](=O)[O-])cc1)C(Cl)Cl [Chloramphenicol, chloramphenicol] | > 200 | > 100 | > 100 |  |  |  |  |
| P4381: promoter polynucleotide comprising SEQ ID NO: 1 isolated from Gene_4381 of Pseudomonas saitens KCTC 13107BP (nucleic acid, Synthetic Pseudomonas saitens KCTC 13107BP) DNA: TAGACCTGACTGCAGAGCGAATTCGGGCCTGATTCAGGGCAAAAATGGCCAGAAACCATTTTTCGCGTAAAAAATATTCATTCGCGAGTGCTTTTTTTCCAAGCCCGTTTAACCCTCAAGCCCCGGAAACCGGGGCTTCGAGCATTTCAGGCAGCAGACCGAAGCTAACATCGCAGCAAACTGTGGTTCAGGGGGGTTCCAAAGCGCACATTTCGACTATGATAGCTCGGTGTGCCCAGTTGGCCTGAGCAGCACAGTACTACTGAAAATATAAGTTTCTTGGAGATACACC |  |  |  | twice or higher | significantly higher | 158 | 32 |

Reference: US20200024598A1, “ISOLATED POLY[…] REGION, HOST CELL COMPRISING THE SAME, AND METHOD OF […] GENE IN THE HOST CELL” (priority 2018, published 2020)
